From US20120110693, “TARGETING NUCLEIC ACIDS IN MITOCHONDRIA” (published 2012)

T1: pSu9-DHFR (mouse DHFR fused to Neurospora crassa Su9 presequence) (Mus musculus, UniProt P00375 SEQ:1-259)
T1 chain: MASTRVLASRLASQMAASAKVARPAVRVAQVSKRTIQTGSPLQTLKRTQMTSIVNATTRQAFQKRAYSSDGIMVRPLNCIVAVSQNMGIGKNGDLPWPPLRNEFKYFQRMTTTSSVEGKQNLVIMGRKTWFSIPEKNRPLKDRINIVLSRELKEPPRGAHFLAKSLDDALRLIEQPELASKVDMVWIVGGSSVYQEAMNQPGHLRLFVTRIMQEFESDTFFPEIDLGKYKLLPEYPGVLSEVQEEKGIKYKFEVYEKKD

B1: tRNAAla-sequence DNA oligonucleotide (ssDNA)
DNA: GGGGATGTAGCTCATATGGTAGAGCGCTCGCTTTGCATGCGAGAGGCACAGGGTTCGATTCCCTGCATCTCCACCA
B2: cytosolic tRNAAla transcript (A. thaliana) (ssRNA)
RNA: GGGGAUGUAGCUCAUAUGGUAGAGCGCUCGCUUUGCAUGCGAGAGGCACAGGGUUCGAUUCCCUGCAUCUCCACCA

How the values were obtained:
[1] = target: DHFR (mouse, recombinant) (Mus musculus, UniProt P00375 SEQ:4-190); assay: Southwestern blot; 10 mM Tris pH 7.5, 5 mM Mg acetate, 2 mM DTT, 4 C; conditions: tags: His tag; label: 5'-32P
Description: The DNA substrate selected in this case corresponds to an oligonucleotide (single strand DNA) corresponding to the sequence of cytosolic tRNAAla of A. thaliana (SEQ ID NO: 4). This chemically synthesized oligonucleotide (Sigma Aldrich) and labeled at 5′ was incubated with a membrane onto which the recombinant proteins DHFR and GFP were transferred. No interaction between GFP and the oligonucleotide was observed while a signal was obtained, reflecting an interaction between DHFR and the oligonucleotide.

[2] = target: T1, pSu9-DHFR (mouse DHFR fused to …); assay: EMSA; shift increases with protein; legend names pSu9-DHFR, text says DHFR; 10 mM Tris pH 7.5, 50 mM NaCl, 1 mM MgCl2, 25 C; conditions: label: 32P-UTP; tRNA
Description: The RNA-protein interaction was studied by means of the shift gel technique. The procedure used is the procedure No. TB110 of Promega, entitled <<gel shift assay system >>. The reaction is conducted in a 9 μL reaction volume comprising: […] of protein, 2 μL of gel shift buffer 5× (20% (v/v) glycerol, 5 mM MgCl₂, 2.5 mM EDTA, 2.5 mM DTT, 250 mM NACl, 50 mM Tris-HCL pH 7.5). The medium is incubated for 10 minutes at room temperature. One μL of radiolabelled tRNA (about 10 fmol corresponding to 20,000 cpm) is then added and the whole is then incubated under mild stirring at 25° C. After migration, the medium is added with one μL of load buffer (250 mM Tris-HCl pH 7.5, 40% (v/v) glycerol). The gel is prepared from a solution of 4% acrylamide/N,N′-methylene bisacrylamide (19/1) in TBE 0.5× buffer (45 mM Tris 45, 1.25 mM EDTA pH 8.3, 45 mM boric acid). The polymerization of the gel is catalyzed by adding 0.04% (w/v) APS and 0.04% (v/v) TEMED. Before charging the samples, the gel is set to a voltage of 350 V for 10 mins. Migration is then carried out for 20 mins at 350 V in the TBE 0.5× buffer. The gel is dried and then exposed against a Phosphorimager plate (Fuji) or subject to autoradiography.
The nucleic acid substrate selected in this case corresponds to the cytosolic tRNAAla of Arabidopsis thaliana (SEQ ID NO: 4). […]

[3] = target: pSu9-GFP (UniProt P42212 SEQ:1-307); assay: stated unable to interact with tRNAAla; no effect on import; conditions: label: 32P-UTP; tRNA

Binder	binding result [1]	binding result [2]	binding result [3]
B1	binds		
B2		binds	no binding
